Literature values in US8536129B2, “Treatment for anxiety” (NoNO Inc., priority 2007, dated 2013).

Biological target: N-type calcium channels (Homo sapiens, UniProt Q00975)
Conditions: reported in co-pending application 60/904,507

Chain of N-type calcium channels (Q00975 whole entry): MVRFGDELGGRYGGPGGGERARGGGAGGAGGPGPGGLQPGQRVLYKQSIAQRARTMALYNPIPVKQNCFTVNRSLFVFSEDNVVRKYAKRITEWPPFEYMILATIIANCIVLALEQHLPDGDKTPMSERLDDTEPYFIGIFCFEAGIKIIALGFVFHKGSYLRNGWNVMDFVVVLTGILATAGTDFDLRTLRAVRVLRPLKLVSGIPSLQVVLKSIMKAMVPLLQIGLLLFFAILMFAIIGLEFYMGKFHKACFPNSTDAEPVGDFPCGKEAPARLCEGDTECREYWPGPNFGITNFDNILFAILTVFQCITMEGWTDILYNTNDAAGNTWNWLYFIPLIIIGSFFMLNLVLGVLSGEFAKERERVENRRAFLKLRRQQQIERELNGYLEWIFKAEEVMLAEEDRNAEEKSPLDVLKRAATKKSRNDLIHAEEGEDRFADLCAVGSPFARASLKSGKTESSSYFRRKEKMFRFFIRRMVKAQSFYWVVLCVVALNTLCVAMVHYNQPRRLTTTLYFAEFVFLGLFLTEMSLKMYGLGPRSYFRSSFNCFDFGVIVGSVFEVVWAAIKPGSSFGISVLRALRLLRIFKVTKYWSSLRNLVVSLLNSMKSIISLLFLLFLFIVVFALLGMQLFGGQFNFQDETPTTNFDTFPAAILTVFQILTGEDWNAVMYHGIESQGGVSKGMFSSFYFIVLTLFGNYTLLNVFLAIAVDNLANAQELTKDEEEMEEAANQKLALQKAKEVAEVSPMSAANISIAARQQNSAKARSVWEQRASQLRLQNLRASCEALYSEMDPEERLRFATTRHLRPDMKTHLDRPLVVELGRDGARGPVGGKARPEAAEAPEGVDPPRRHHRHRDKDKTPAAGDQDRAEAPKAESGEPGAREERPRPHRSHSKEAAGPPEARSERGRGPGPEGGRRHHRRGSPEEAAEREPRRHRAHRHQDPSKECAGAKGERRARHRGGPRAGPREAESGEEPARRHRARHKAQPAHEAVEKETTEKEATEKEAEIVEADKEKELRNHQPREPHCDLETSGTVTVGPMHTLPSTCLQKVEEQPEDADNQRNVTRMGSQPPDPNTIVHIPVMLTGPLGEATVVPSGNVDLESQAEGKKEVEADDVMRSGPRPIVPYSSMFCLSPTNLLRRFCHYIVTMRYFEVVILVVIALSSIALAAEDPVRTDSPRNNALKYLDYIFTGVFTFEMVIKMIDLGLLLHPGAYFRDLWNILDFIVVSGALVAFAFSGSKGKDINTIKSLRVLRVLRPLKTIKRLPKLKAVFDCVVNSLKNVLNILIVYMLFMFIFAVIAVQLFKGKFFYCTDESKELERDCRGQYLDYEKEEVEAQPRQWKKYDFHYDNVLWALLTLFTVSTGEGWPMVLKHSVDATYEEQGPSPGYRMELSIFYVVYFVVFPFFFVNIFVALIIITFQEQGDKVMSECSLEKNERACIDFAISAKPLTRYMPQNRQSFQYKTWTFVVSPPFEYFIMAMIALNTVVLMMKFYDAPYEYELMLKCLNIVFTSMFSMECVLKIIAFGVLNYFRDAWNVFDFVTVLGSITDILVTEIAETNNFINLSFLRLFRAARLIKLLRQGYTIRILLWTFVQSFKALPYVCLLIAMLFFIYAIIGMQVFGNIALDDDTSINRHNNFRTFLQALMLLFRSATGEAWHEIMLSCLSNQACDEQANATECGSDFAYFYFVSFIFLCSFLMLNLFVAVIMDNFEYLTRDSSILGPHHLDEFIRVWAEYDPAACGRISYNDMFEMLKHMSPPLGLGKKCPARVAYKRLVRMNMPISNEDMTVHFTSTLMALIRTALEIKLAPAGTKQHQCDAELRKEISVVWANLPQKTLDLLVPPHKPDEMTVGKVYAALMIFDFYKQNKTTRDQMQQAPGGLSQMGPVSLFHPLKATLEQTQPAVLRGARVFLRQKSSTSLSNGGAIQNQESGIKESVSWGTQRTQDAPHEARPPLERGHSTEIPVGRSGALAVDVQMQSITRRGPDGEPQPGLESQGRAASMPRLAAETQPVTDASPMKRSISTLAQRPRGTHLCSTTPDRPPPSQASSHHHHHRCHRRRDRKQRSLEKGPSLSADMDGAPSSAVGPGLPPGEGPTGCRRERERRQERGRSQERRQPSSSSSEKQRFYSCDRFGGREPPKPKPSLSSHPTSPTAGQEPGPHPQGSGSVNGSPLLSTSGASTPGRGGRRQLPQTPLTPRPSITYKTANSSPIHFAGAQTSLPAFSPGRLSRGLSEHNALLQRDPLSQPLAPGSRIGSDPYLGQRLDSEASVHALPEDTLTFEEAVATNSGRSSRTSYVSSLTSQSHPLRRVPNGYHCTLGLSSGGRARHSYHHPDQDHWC

Sequence: YGRKKRRQRRR [standard tat peptide]
- binding to and inhibition of N-type calcium channels: binds to and inhibits N-type calcium channels
